{"source": "patent EP2353607A1", "key": {"[1]": {"molecular_target": "integrin α5β1 on cultured endothelial cells (species of the cells not stated)", "experiment": "cell-based or functional assay"}, "[2]": {"molecular_target": "integrin αvβ3 on cultured endothelial cells (species of the cells not stated)", "experiment": "cell-based or functional assay"}}}
{"substance": "recombinant disintegrin domain (RDD) of metargidin (human ADAM-15)", "values": [{"measurement": "endothelial cell migration (scratch-wound closure) in the presence of 15µg/ml RDD protein, as compared to untreated control culture", "setting": "[1]", "result": 54.5, "unit": "%"}, {"measurement": "endothelial cell migration (scratch-wound closure) in the presence of 15µg/ml RDD protein, as compared to untreated control culture", "setting": "[2]", "result": 54.5, "unit": "%"}]}
